This assay has as its target myelin basic protein, 32P-labeled on tyrosine residues.

This passage reports dephosphorylation (radioactivity released as inorganic phosphate, percentage of total input) results from patent US5821075.

Some results are limits rather than exact numbers.

B1: PTPL1 protein tyrosine phosphatase (enzyme)
chain: MVQPEQAPKVLNVVVDPQGRGAPEIKATTATSVCPSPFKMKPIGLQERRGSNVSLTLDMSSLGNIEPFVSIPTPREKVAMEYLQSASRILDKVQLRDVVASSHLLQSEFMEIPMNFVDPKEIDIPRHGTKNRYKTILPNPLSRVCLRPKNVTDSLSTYINANYIRGYSGKEKAFIATQGPMINTVDDFWQMVWQEDSPVIVMITKLKEKNEKCVLYWPEKRGIYGKVEVLVISVNECDNYTIRNLVLKQGSHTQHVSNYWYTSWPDHKTPDSAQPLLQLMLDVEEDRLASQGPRAVVVHCSAGIGRTGCFIATSIGCQQLKEEGVVDALSIVCQLRMDRGGMVQTSEQYEFVHHALCLYESRLSAETVQ
Turning to B1, the dephosphorylation (radioactivity released as inorganic phosphate, percentage of total input) was above 30%.
